Results published in article PMC3010111.

What was measured:
Experiment in all cases: purified protein
[1] = substrate: N[C@@H](CCO)C(=O)O; settings: 25°C, 37 nM ThrB
[2] = substrate: N[C@H](C(=O)O)[C@H](O)CO
[3] = substrate: O=C(O)[C@H](O)[C@H](O)COP(=O)(O)O; settings: 2 mM NAD+, 100 mM Tris–HCl pH 7.5, 25°C, 2 μM PdxA
[4] = substrate: C[C@H](O)[C@H](N)C(=O)O; settings: 0.1 M Tris–HCl pH 8.0, 25°C, 62.5 nM LtaE
[5] = substrate: C[C@@H](O)[C@H](N)C(=O)O; settings: 0.1 M Tris–HCl pH 8.0, 25°C, 1.25 μM LtaE
[6] = substrate: O=C(O)C(=O)COP(=O)(O)O; settings: 50 mM Tris–HCl pH 7.4, 37°C, MalE–YeaB 5.7 μM
[7] = 0.1 M Tris–HCl pH 8.0, 25°C, 1 μM LtaE

B1: ThrB (homoserine kinase) (Escherichia coli K-12) (protein)
chain: MVKVYAPASSANMSVGFDVLGAAVTPVDGALLGDVVTVEAAETFSLNNLGRFADKLPSEPRENIVYQCWERFCQELGKQIPVAMTLEKNMPIGSGLGSSACSVVAALMAMNEHCGKPLNDTRLLALMGELEGRISGSIHYDNVAPCFLGGMQLMIEENDIISQQVPGFDEWLWVLAYPGIKVSTAEARAILPAQYRRQDCIAHGRHLAGFIHACYSRQPELAAKLMKDVIAEPYRERLLPGFRQARQAVAEIGAVASGISGSGPTLFALCDKPETAQRVADWLGKNYLQNQEGFVHICRLDTAGARVLEN
B1 was tested, and the Km [1] was 120 ± 20 µM, the kcat [1] was 46 ± 4 s⁻¹ and the kcat/Km [1] was 380000 ± 70000 M⁻¹ s⁻¹. It also gave a Km ([2]; 25°C, 0.18 μM ThrB) of 2000 ± 100 µM, a kcat ([2]; 25°C, 0.18 μM ThrB) of 9.7 ± 0.8 s⁻¹ and a kcat/Km ([2]; 25°C, 0.18 μM ThrB) of 4800 ± 600 M⁻¹ s⁻¹.

B2: PdxA (4-hydroxy-L-threonine dehydrogenase) (Escherichia coli K-12) (protein)
chain: MVKTQRVVITPGEPAGIGPDLVVQLAQREWPVELVVCADATLLTNRAAMLGLPLTLRPYSPNSPAQPQTAGTLTLLPVALRAPVTAGQLAVENGHYVVETLARACDGCLNGEFAALITGPVHKGVINDAGIPFTGHTEFFEERSQAKKVVMMLATEELRVALATTHLPLRDIADAITPALLHEVIAILHHDLRTKFGIAEPRILVCGLNPHAGEGGHMGTEEIDTIIPVLNELRAQGMKLNGPLPADTLFQPKYLDNADAVLAMYHDQGLPVLKYQGFGRGVNITLGLPFIRTSVDHGTALELAGRGKADVGSFITALNLAIKMIVNTQ
In the case of B2, the Km [3] is reported as 150 ± 13 µM and the kcat [3] is reported as 0.020 ± 0.002 s⁻¹.

B3: LtaE (low-specificity threonine aldolase) (Escherichia coli K-12) (protein)
chain: MIDLRSDTVTRPSRAMLEAMMAAPVGDDVYGDDPTVNALQDYAAELSGKEAAIFLPTGTQANLVALLSHCERGEEYIVGQAAHNYLFEAGGAAVLGSIQPQPIDAAADGTLPLDKVAMKIKPDDIHFARTKLLSLENTHNGKVLPREYLKEAWEFTRERNLALHVDGARIFNAVVAYGCELKEITQYCDSFTICLSKGLGTPVGSLLVGNRDYIKRAIRWRKMTGGGMRQSGILAAAGIYALKNNVARLQEDHDNAAWMAEQLREAGADVMRQDTNMLFVRVGEENAAALGEYMKARNVLINASPIVRLVTHLDVSREQLAEVAAHWRAFLAR
For B3, the Km [4] was 52 ± 4 µM, the kcat [4] was 3.2 ± 0.2 s⁻¹ and the kcat/Km [4] was 62000 ± 5000 M⁻¹ s⁻¹. The Km [5] was 4000 ± 200 µM, the kcat [5] was 1.1 ± 0.1 s⁻¹ and the kcat/Km [5] was 280 ± 20 M⁻¹ s⁻¹. It also gave a Km [2, 7] of 27 ± 2 µM, a kcat [2, 7] of 1.44 ± 0.03 s⁻¹ and a kcat/Km [2, 7] of 53000 ± 4000 M⁻¹ s⁻¹.

B4: MalE–YeaB (YeaB, also known as NudL) (Escherichia coli K-12) (protein)
chain: MEYRSLTLDDFLSRFQLLRPQINRETLNHRQAAVLIPIVRRPQPGLLLTQRSIHLRKHAGQVAFPGGAVDDTDASAIAAALREAEEEVAIPPSAVEVIGVLPPVDSVTGYQVTPVVGIIPPDLPYRASEDEVSAVFEMPLAQALHLGRYHPLDIYRRGDSHRVWLSWYEQYFVWGMTAGIIRELALQIGVKP
Protein B4 has a kcat [6] of 5.7e-05 ± 7e-06 s⁻¹ and a kcat/Km [6] greater than 0.028 M⁻¹ s⁻¹.
